Test results taken from the supplement of paper PMC12042874.
± gives the uncertainty stated by the source.

Assay: amyloid nucleation score (Sup35N fusion, yeast selection) (log enrichment); library NNK3; higher = more nucleation; inactive = no reads after selection
Method in brief: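 Yeast lacking psi expressed peptides of 20 random codons fused to Sup35N, received 100 μM copper sulfate for 24 hours, and were then grown for 7 days at 30°C on medium lacking adenine and uracil. Illumina sequencing of input and output plasmid inserts provided the reads. Nucleation scores are DiMSum log enrichments of output over input, centred on the mode of non-aggregating sequences. Any sequence with under 100 input reads was excluded.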

Amyloid nucleation score, -0.918 ± 1.4:
LPGINCARHK

Amyloid nucleation score, 2.74 ± 0.067:
LLSVICLTSIHF

Amyloid nucleation score, -0.582 ± 0.95:
LRPVRYRLCVRFNWMCVRCK

Amyloid nucleation score, 1.07 ± 0.086:
LNWLC

Amyloid nucleation score, 0.842 ± 0.2:
LTHRAVGLSNVNTPPSFCMR

Amyloid nucleation score, -0.469 ± 0.88:
LKLYTLLDRNSNKRTNAGMS

Amyloid nucleation score, 1.54 ± 0.073:
LIMGTVVLIL

Amyloid nucleation score, 2.29 ± 0.079:
LIISLGTVVIDVQSKKSLLL

Amyloid nucleation score, 2.51 ± 0.071:
LVFMQRNIENISCCVTLYYQ

Amyloid nucleation score, 1.58 ± 0.08:
LPNRYVMINGCIRQFAKCDI

Amyloid nucleation score, 1.36 ± 0.14:
LLNCGLMLLRIDVCRATYYV

Amyloid nucleation score, 1.43 ± 0.073:
LRQSTSMPCNFCIYLEERKD

Amyloid nucleation score, 2.7 ± 0.049:
LSKQIVIRINSNNCNGSVFF

Amyloid nucleation score, -0.047 ± 1.1:
LLKVSGYWLMLRGLTRKFMG

Amyloid nucleation score, -0.211 ± 0.52:
LRCKKRLVRFLHVHEFAVEY

Amyloid nucleation score, 0.833 ± 0.32:
LTYHLFYMVADACVIWYDCS

Amyloid nucleation score, 0.245 ± 0.75:
LSSFHHRQVLHRAVAKPFTA

Amyloid nucleation score, inactive:
LIELSSSPRSYGHQVLM, LIGLRCMPLRV, LIGSYICYAVGLMVTLNNWW, LIIMNVKSSSSHKRAGVST, LIINIHDRLLVRVPLWDWLR, LILIRAVSG, LINAGTKFMQDTRSCWMHSS, LIRAVGFGGWILIAHWYIWN, LIRGK, LISNFVWLQLRCA, LISTWNMAYSLSLIMMDHHS, LIVYFRPYGNALRRFVRSYV, LIYDRHSWNHWSSQHVDRDG, LKLMKNDCRFSNGNLVVVRV, LKLYQAAL, LKRLHFKSGDMSGQRQFRGS, LKSIYLLKWCPTSQLRTTSV, LKTVSMSYD, LKVMWLWSAKINYMSIVENL, LKVVYGSLALPSFKFIWQAE, LLANDSWF, LLDYRPKTGNCRVQIRLCVV, LLGMLIRGDAF, LLGSMVWGYSARYNFRVSQG, LLHCQCSC, LLKVVD, LLLSDFVSLLESPRVLHAQW, LLMDGLIRFWS, LLPLDSHYISSPFY, LLRGVRKE, LLTSLDPDYSSPWCYSVDIC, LLVLPGGVSGVNLRDEWTDF, LLVLVV, LLVQLLLCKLKSMRLCCTVF, LMAFNPMYSSQKYGTNYSFM, LMGTSIPSKQADLGTEFSNF, LMKWALNTELKMG, LMRTDNSSKNGSASGGGMSG, LMYRYVTLNAFRESISYISS, LNCIFLVKVIYWTRFTWSTY, LNCNSESMLPLYNMVWRNRN, LNGASADRRDWAEWLKADHC, LNGIEGSGY, LNKCLAGFIHMEVWILRMKL, LNLAKQCMLPSFPSYMVWYF, LNMARDYFVFQSPADPGCLV, LNMHFENTIRGVPYTLVSGR, LNRLSCFSCPLFV, LNSFFAAIHILMGHFKRILS, LNSLLY, LNTNWCSSK, LNVVKNYIGLVRRHIIRVHF, LNWSKEAWCSYNILLNYGGW, LPAGVFTDSACVVVSANKAT, LPAMIGIWCILTH, LPLFRISAPMVMYVLLYVPW, LPLMDKLR, LPSGFLGPLIPVESQIPRTQ, LPVEMKLLIMMRVPSFHFRH, LPVHLDNMCFHVVRAEESRR, LQDIPLFFCCVLFCVATMAL, LQFPPNLSMLCKVTQPSNNW, LQILLSR, LQPKLGIT, LRAEVLSSYVTWVHAEGPHC, LRAKFLILWSRFMQGMQGVT, LRCHLRKGSRISRSL, LREPRGGSWRRLDCFKCRLG, LRFTRRFYSRGWVRW, LRHHSSSVAPVRVGILRCNS, LRMVRSYVLSNGCL, LRRQSVMWDKSYAGTWILES, LRSFKSKICVERLRDEIILL, LRTSVFRVLVNSILVKNLIS, LRTTDSGSGIYLTNSVHGFV, LRVFWRTFCVSWSECNKMLE, LRWIGH, LRWMFPLPRNVSHCSLA, LRWSIEGFLVSMMKY, LSAIFLCLSVCLGLHCVGLP, LSCSQKV, LSDSY, LSECRKD, LSELYHTFYSVVNGGHVLMI, LSFPYMMTIFCATRFTDPLM, LSIGFNLWSKLKYSRKVSGM, LSISIMWCFIFGYIFMCSRC, LSISYSIGGDGDMIGNAACV, LSLVDEFQSPLLQLLFVQVA, LSLVQGR, LSMCSLHRNTVFWFRISLMI, LSRFQVGFHQIDIMRGDVWK, LSSCLSRI, LSTNTERAFTAWNVIGELGD, LSVNYKLGQYRTLWFHHSLG, LSVVTSTHEDASSLNTTRWM, LSYKIIYTGIGCEYAYGFIE, LSYSAGEIRCVGSCWANESL, LTCWSVVMFTCHP, LTICAFVVYVFIYKYKMGVM, LTIVAYVVATYSFCWWISVG, LTLLCSDECWVFMSMGDRTF, LTQMCFTTSVFLRLAWVPFK, LTSESSDEICGGRATSVLCL, LTSMNSGLSYLKLFASQNLR, LTSPFDPISLPKS, LTTRGRNTRSEDMGEPGLWA, LTWKFSATCIGVKT, LTYTHLCEPSEFR, LVCDHGSCVKMVIMTDFMSS, LVCHFLDEDCLFACILQNMR, LVFFFLWHSHENFNHDLVSK, LVGGTTLLIPVCS, LVGLGLGFCYLIKTFVTLLV, LVIASGRVIVIVCYV, LVILMSSHIEFLGTYFNEKL, LVILVVDSRRYDMCLSNRDF, LVKLCIFGLRDGYTVFEYMG, LVKTCRYRGSDLSVLVGVRI

Amyloid nucleation score, -0.294 ± 0.47:
LSPGTFCRVDSTPVWVNACP

Amyloid nucleation score, 1.66 ± 0.11:
LIQPFFWCHCHDLAVDESGE

Amyloid nucleation score, 1.99 ± 0.097:
LQRTWLKVFGASCFICDDFL

Amyloid nucleation score, 1.68 ± 0.078:
LLVKSYNLYIMFSPHL

Amyloid nucleation score, 1.82 ± 0.071:
LVIIQCSNRGVSKYRLVGTD

Amyloid nucleation score, 2.15 ± 0.086:
LKWNTTSVNVVYLSFIIGRQ

Amyloid nucleation score, 1.16 ± 0.073:
LINFEY

Amyloid nucleation score, 0.759 ± 0.19:
LRGVGDRIGNTSGISGLWPG

Amyloid nucleation score, 0.456 ± 0.36:
LLYENTVSSRGTVLRDHLS

Amyloid nucleation score, -0.208 ± 0.39:
LMSFCHPDPIDFSVTGLCCR

Amyloid nucleation score, 1.3 ± 0.1:
LNFVVYMIGGFCCHHFNVLF

Amyloid nucleation score, 0.744 ± 0.2:
LSLATTSTLTLPMWKGTRLN

Amyloid nucleation score, -0.702 ± 1:
LNMKTV

Amyloid nucleation score, 1.48 ± 0.13:
LRVYYYNMILDDFCVFVLEG

Amyloid nucleation score, 0.571 ± 0.17:
LMNYRMGWWFVCENYNEML

Amyloid nucleation score, 0.868 ± 0.17:
LLLTDSMSHLRFSHNSCMQQ

Amyloid nucleation score, -0.328 ± 0.98:
LTKCPCRLLCRLRSRARRMG

Amyloid nucleation score, 0.928 ± 0.24:
LSKLPTKMACPLMVRS

Amyloid nucleation score, 0.221 ± 0.54:
LINVELYLPGLRRIWAPSSG

Amyloid nucleation score, 1.04 ± 0.17:
LPHPALKDFRISVRQLIWVR

Amyloid nucleation score, 1 ± 0.15:
LRGGMIEPNTRRYS

Amyloid nucleation score, 0.606 ± 0.1:
LRFVHDVLDFGASMSLRRK
